Starred links: 1 amine or outer side, 2 acyl side, 3 side chain; linkers in the order of their positions; H or OH if unused. Positions of bridges follow the written chain, without caps; N, C: chain ends. Non-standard residues stand in square brackets, D forms with d. No end group written: not given here. BCN = bicyclo[6.1.0]non-4-yn-9-ylmethyl carbonate as carbamate, click handle; TATA = O=C(CC[*:1])N1CN(C(=O)CC[*:2])CN(C(=O)CC[*:3])C1; tBuAla = CC(C)(C)C[C@H](N)C(=O)O; Nle = CCCC[C@H](N)C(=O)O; PYA = propargyl-acid
B1: BCY8095 (peptide)
peptide: Ac-ACIK(BCN)EGQYCFADPY[Nle]CA
modifications: linker 2-9-16 via TATA
notes: Bicyclic peptide monomer; also called Monomer 3-BCN
B2: BCY8581 (peptide)
peptide: XACIEEGQYCFADPYXCA
modifications: not fully specified; (PYA)-A-CiIEEGQYCiiF[D-A]DPY[Nle]Ciii-A; Cys on TATA scaffold
B3: BCY8582 (peptide)
peptide: XACIEEGQYCFADPYXCA
modifications: not fully specified; (PYA)-A-CiIEEGQYCiiF[D-A]DPY[Nle]Ciii-A; Cys on TATA scaffold
B4: BCY8583 (peptide)
peptide: XACIEEGQYCFADPYXCA
modifications: not fully specified; (PYA)-A-CiIEEGQYCiiF[D-A]DPY[Nle]Ciii-A; Cys on TATA scaffold
B5: BCY8584 (peptide)
peptide: XACIEEGQYCFADPYXCA
modifications: not fully specified; (PYA)-A-CiIEEGQYCiiF[D-A]DPY[Nle]Ciii-A; Cys on TATA scaffold
B6: BCY8151 (peptide)
peptide: Ac-ACIEEGK(BCN)YCFADPY[Nle]CA
modifications: linker 2-9-16 via TATA; not fully specified; also: trimer of three peptide units on central hinge B (TCA) via spacer S1A n=10
B7: BCY8150 (peptide)
peptide: Ac-ACIEK(BCN)GQYCFADPY[Nle]CA
modifications: linker 2-9-16 via TATA; not fully specified; also: tetramer of four peptide units on central hinge A (TET) via spacer S1A n=10
B8: BCY7845 (peptide)
peptide: Ac-ACIEEGK(PYA)YCFADPY[Nle]CA
modifications: linker 2-9-16 via TATA; not fully specified; also: tetramer of four peptide units on central hinge A (TET) via spacer S1A n=10
B9: BCY8097 (peptide)
peptide: ACIEEGQYCFADPYXCA
modifications: Ac-A-CiIEEGQYCiiFADPYK(BCN)Ciii-A; Ci, Cii, Ciii cyclised on TATA
notes: Bicyclic peptide monomer; also called Monomer 9-BCN
B10: BCY7748 (peptide)
peptide: ACIEEGQYCFADPYXCA
modifications: Ac-A-CiIEEGQYCiiFADPYK(PYA)Ciii-A; Ci, Cii, Ciii cyclised on TATA
notes: Bicyclic peptide monomer; also called Monomer 9A
B11: BCY8143 (peptide)
peptide: Ac-ACIEEGK(BCN)YCFADPY[Nle]CA
modifications: linker 2-9-16 via TATA
notes: Bicyclic peptide monomer; also called Monomer 6-BCN
B12: BCY7743 (peptide)
peptide: Ac-ACIEK(PYA)GQYCFADPY[Nle]CA
modifications: linker 2-9-16 via TATA
notes: Bicyclic peptide monomer; also called Monomer 4A
B13: BCY8141 (peptide)
peptide: XACIEEGQYCFADPYXCA
modifications: (BCN)-A-CiIEEGQYCiiFADPY(Nle)Ciii-A; Ci, Cii, Ciii cyclised on TATA
notes: Bicyclic peptide monomer; also called Monomer 1-BCN
B14: BCY7746 (peptide)
peptide: Ac-ACIEEGQYCK(PYA)ADPY[Nle]CA
modifications: linker 2-9-16 via TATA
notes: Bicyclic peptide monomer; also called Monomer 7A
B15: BCY8144 (peptide)
peptide: Ac-ACIEEGQYCK(BCN)ADPY[Nle]CA
modifications: linker 2-9-16 via TATA
notes: Bicyclic peptide monomer; also called Monomer 7-BCN
B16: BCY7745 (peptide)
peptide: Ac-ACIEEGK(PYA)YCFADPY[Nle]CA
modifications: linker 2-9-16 via TATA
notes: Bicyclic peptide monomer; also called Monomer 6A
B17: BCY7741 (peptide)
peptide: ACIEEGQYCFADPYXCX
modifications: Ac-A-CiIEEGQYCiiFADPY(Nle)Ciii-Dap(PYA); Ci, Cii, Ciii cyclised on TATA
notes: Bicyclic peptide monomer; also called Monomer 2A
B18: BCY8142 (peptide)
peptide: Ac-ACIEK(BCN)GQYCFADPY[Nle]CA
modifications: linker 2-9-16 via TATA
notes: Bicyclic peptide monomer; also called Monomer 4-BCN
B19: BCY7740 (peptide)
peptide: XACIEEGQYCFADPYXCA
modifications: (PYA)-A-CiIEEGQYCiiFADPY(Nle)Ciii-A; Ci, Cii, Ciii cyclised on TATA
notes: Bicyclic peptide monomer; also called Monomer 1A
B20: BCY8927 (peptide)
peptide: Ac-C[tBuAla]PK(PYA)[dA]PYCFADPY[Nle]CA
modifications: linker 1-8-15 via TATA
notes: Bicyclic peptide monomer; also called Monomer 11A
B21: BCY7747 (peptide)
peptide: Ac-ACIEEGQYCFADK(PYA)Y[Nle]CA
modifications: linker 2-9-16 via TATA
notes: Bicyclic peptide monomer; also called Monomer 8A
B22: BCY8926 (peptide)
peptide: Ac-ACIEK(PYA)GQYCF[dA]DPY[Nle]CA
modifications: linker 2-9-16 via TATA
notes: Bicyclic peptide monomer; also called Monomer 14A
B23: BCY8925 (peptide)
peptide: Ac-ACIE[dK](PYA)GQYCF[dA]DPY[Nle]CA
modifications: linker 2-9-16 via TATA
notes: Bicyclic peptide monomer; also called Monomer 13A
B24: BCY8935 (peptide)
peptide: XACIEEGQYCFXDPYXCA
modifications: (PYA)-A-CiIEEGQYCiiF[D-A]DPY[Nle]Ciii-A; Ci, Cii, Ciii cyclised on TATA
notes: Bicyclic peptide monomer; also called Monomer 10A

These binders were tested against T1, Recombinant human CD137 (R&D systems), biotinylated (human, UniProt Q07011 24-186, biotinylated with EZ-Link Sulfo-NHS-LC-LC-Biotin) (assay: SPR (Biacore), biotinylated human CD137 captured on streptavidin chip, peptide as analyte, 25°C; BCY8095 (Monomer 3-BCN), a separate monomer number from BCY7742).
T1 construct: Bought protein; Captured on a streptavidin chip; also called human CD137 protein; 4-1BB
Protocol: (§1) Biacore experiments were performed to determine kₐ (M⁻¹s⁻¹), kd (s⁻¹), KD (nM) values of monomeric peptides binding to human CD137 protein. […] The protein was desalted to remove uncoupled biotin using spin columns into PBS.
For analysis of peptide binding, a Biacore T200 or a Biacore 3000 instrument was used with a XanTec CMD500D chip. Streptavidin was immobilized on the chip using standard amine-coupling chemistry at 25° C. with HBS-N(10 mM HEPES, 0.15 M NaCl, pH 7.4) as the running buffer. Briefly, the carboxymethyl dextran surface was activated with a 7 min injection of a 1:1 ratio of 0.4 M 1-ethyl-3-(3-dimethylaminopropyl) carbodiimide hydrochloride (EDC)/0.1 M N-hydroxy succinimide (NHS) at a flow rate of 10 μl/min. For capture of streptavidin, the protein was diluted to 0.2 mg/ml in 10 mM sodium acetate (pH 4.5) and captured by injecting 120 μl of onto the activated chip surface. Residual activated groups were blocked with a 7 min injection of 1 M ethanolamine (pH 8.5) and biotinylated CD137 captured to a level of 270-1500 RU. Buffer was changed to PBS/0.05% Tween 20 and a dilution series of the peptides was prepared in this buffer with a final DMSO concentration of 0.5%. The top peptide concentration was 500 nM with 6 further 2-fold or 3-fold dilutions. The SPR analysis was run at 25° C. at a flow rate of 90 μl/min with 60 seconds association and 900 seconds dissociation. […]

T1 sequence (Q07011 24-186 limits assumed): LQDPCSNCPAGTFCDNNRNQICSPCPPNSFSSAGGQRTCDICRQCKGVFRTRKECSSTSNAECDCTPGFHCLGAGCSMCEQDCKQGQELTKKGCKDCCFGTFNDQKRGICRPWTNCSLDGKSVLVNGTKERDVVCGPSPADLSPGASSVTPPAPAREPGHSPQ

Binder | Kd [nM]
B1 | 0.685

What follows are binders tested against T2, CD137 on Jurkat reporter cells (Promega) (UniProt Q07011 24-255, limits assumed) (assay: cell-based or functional assay).
T2 sequence (Q07011 24-255 limits assumed): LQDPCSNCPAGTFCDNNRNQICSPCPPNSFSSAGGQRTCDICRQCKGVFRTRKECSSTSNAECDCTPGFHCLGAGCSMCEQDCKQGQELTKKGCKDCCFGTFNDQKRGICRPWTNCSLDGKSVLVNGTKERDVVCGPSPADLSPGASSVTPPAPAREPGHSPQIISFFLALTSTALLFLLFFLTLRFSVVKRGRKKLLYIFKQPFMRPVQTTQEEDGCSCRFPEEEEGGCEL

Binder | Average Fold EC50 Improvement relative to CD137L [fold] | Average Relative Fold Induction relative to CD137L [fold] | Fold Induction over Background [fold]
XACIEEGQYCFADPYXCA (not fully specified; (BCN)-A-CiIEEGQYCiiFADPY(Nle)Ciii-A; Cys on TATA scaffold) [BCY8149] | 140 | 0.93 | 
B2 |  |  | < 2
B3 |  |  | < 2
Ac-ACIEK(PYA)GQYCF[dA]DPY[Nle]CA (linker 2-9-16 via TATA; not fully specified) [BCY8937] |  |  | < 2
B4 | 0.031 | 3.14 | 
B5 |  |  | < 2
B6 | 213 | 0.49 | 
B7 | 4.14 | 0.77 | 

Target: T2, CD137 on Jurkat reporter cells (Promega)
Assay: cell-based or functional assay
Remark: another data set of the same source

Binder | Fold Induction over Background [fold] | Average EC50 [nM] | Average fold induction [fold] | Average Fold EC50 Improvement relative to BCY7845 [fold] | Average Relative Fold Induction relative to BCY7845 [fold]
Ac-ACIEK(PYA)GQYCFADPY[Nle]CA (linker 2-9-16 via TATA; not fully specified) [BCY8962] | < 2 |  |  |  | 
Ac-ACIEK(PYA)GQYCF[dA]DPY[Nle]CA (linker 2-9-16 via TATA; not fully specified) [BCY9113] | < 2 |  |  |  | 
Ac-ACIEK(PYA)GQYCFADPY[Nle]CA (linker 2-9-16 via TATA; not fully specified) [BCY8959] | < 2 |  |  |  | 
Ac-ACIEK(PYA)GQYCFADPY[Nle]CA (linker 2-9-16 via TATA; not fully specified) [BCY8961] | < 2 |  |  |  | 
Ac-ACIEK(PYA)GQYCFADPY[Nle]CA (linker 2-9-16 via TATA; not fully specified) [BCY8957] | < 2 |  |  |  | 
B8 |  | 0.57 | 6.3 |  | 
Ac-ACIEK(PYA)GQYCFADPY[Nle]CA (linker 2-9-16 via TATA; not fully specified) [BCY8965] | < 2 |  |  |  | 
Ac-C[tBuAla]PE[dK](PYA)PYCFADPY[Nle]CA (linker 1-8-15 via TATA; not fully specified) [BCY8948] | < 2 |  |  |  | 
Ac-C[tBuAla]PE[dK](PYA)PYCFADPY[Nle]CA (linker 1-8-15 via TATA; not fully specified) [BCY8947] |  |  |  | 1.33 | 0.62

What follows are binders tested against T1, Recombinant human CD137 (R&D systems), … (assay: SPR (Biacore), biotinylated human CD137 captured on streptavidin chip, peptide as analyte, 25°C).
Protocol: as §1
For analysis of peptide binding, a Biacore T200 or a Biacore 3000 instrument was used with a XanTec CMD500D chip. Streptavidin was immobilized on the chip using standard amine-coupling chemistry at 25° C. with HBS-N(10 mM HEPES, 0.15 M NaCl, pH 7.4) as the running buffer. Briefly, the carboxymethyl dextran surface was activated with a 7 min injection of a 1:1 ratio of 0.4 M 1-ethyl-3-(3-dimethylaminopropyl) carbodiimide hydrochloride (EDC)/0.1 M N-hydroxy succinimide (NHS) at a flow rate of 10 μl/min. For capture of streptavidin, the protein was diluted to 0.2 mg/ml in 10 mM sodium acetate (pH 4.5) and captured by injecting 120 μl of onto the activated chip surface. Residual activated groups were blocked with a 7 min injection of 1 M ethanolamine (pH 8.5) and biotinylated CD137 captured to a level of 270-1500 RU. Buffer was changed to PBS/0.05% Tween 20 and a dilution series of the peptides was prepared in this buffer with a final DMSO concentration of 0.5%. The top peptide concentration was 500 nM with 6 further 2-fold or 3-fold dilutions. The SPR analysis was run at 25° C. at a flow rate of 90 μl/min with 60 seconds association and 900 seconds dissociation. After each cycle a regeneration step (10 μl of 10 mM glycine pH 2) was employed. Data were corrected for DMSO excluded volume effects as needed. All data were double-referenced for blank injections and reference surface using standard processing procedures and data processing and kinetic fitting were performed using Scrubber software, version 2.0c (BioLogic Software). Data were fitted using simple 1:1 binding model allowing for mass transport effects where appropriate.

Binder | Kd [nM]
B9 | 99.4
B10 | 264
B11 | 112
B12 | 101
B13 | 57.8
B14 | 260
B15 | 66.7
B16 | 63.1
B17 | 122
B18 | 321
B19 | 88
B20 | 12.3
B21 | 361
Ac-C[tBuAla]PE[dK](PYA)PYCFADPY[Nle]CA (linker 1-8-15 via TATA, also called Monomer 12A) [BCY8928] | 11.4

The binders below were run against T1, Recombinant human CD137 (R&D systems), … (assay: SPR (Biacore), biotinylated human CD137 captured on streptavidin chip).

Binder | binding result
B22 | no binding (tested: No binding up to 5 µM)
B23 | no binding (tested: No binding up to 5 µM)
B24 | no binding (tested: No binding up to 5 µM)

From patent US20230220008A1 (Bicycle, published 2023)
